Data as given in US6025480.

Assays:
[1] = target: cyclin A-cdk2 (baculovirally coexpressed cyclin A and cdk2-HA)
[2] = target: cyclin E-cdk2 (baculovirally coexpressed cyclin E and cdk2-HA)

half-maximal inhibition of histone H1 kinase activity [1]: 0.5 nM | half-maximal inhibition of histone H1 kinase activity [2]: 0.5 nM
Substance: flag-p57 (mouse p57^KIP2 tagged at the N-terminus with the flag epitope)
